Reference: patent publication US20250059297A1

Experiments:
[1] = molecular target: HER2 and TROP2 expressed together on NCI-H292 cells and NCI-N87 cells (human); assay: cell-based or functional assay
[2] = molecular target: human HER2 (hHER2) on cells (human); assay: cell-based or functional assay
[3] = molecular target: human HER2 (hHER2) on cells (human); assay: flow cytometry, NCI-N87 cells (express HER2 and TROP2)
[4] = molecular target: human HER2 (hHER2) on cells (human); assay: flow cytometry, NCI-H292 cells (express HER2 and TROP2)

| endocytosis, direct detection: MFI [1] | endocytosis, direct detection: Percentage of Positive Population [1] | endocytosis, indirect detection: MFI [1] | endocytosis, indirect detection: Percentage of Positive Population [1] | endocytosis: MFI [2] | endocytosis: Percentage of Positive (%) [2] | endocytosis, direct detection: MFI [2] | endocytosis, direct detection: Percentage of Positive Population [2] | endocytosis, indirect detection: MFI [2] | endocytosis, indirect detection: Percentage of Positive Population [2] | flow cytometry test result (%) [3] | flow cytometry test result (%) [4] | Substance |
| --- | --- | --- | --- | --- | --- | --- | --- | --- | --- | --- | --- | --- |
| 4900 | 1.86% | 4920 | 1.88% | 9840 | 1.1% | – | – | – | – | – | – | Isotype control (antibody) |
| – | – | – | – | 100000 | 97.1% | 15700 | 74.7% | 21000 | 79.5% | – | – | Pertuzumab analog (antibody) |
| – | – | – | – | 50400 | 88% | 18900 | 82.5% | 23400 | 87.3% | 98.5% | 97.8% | Trastuzumab analog (antibody) |
